Measured values from patent US20260216242A1, “ALPP-SPECIFIC VARIANT ANTIGEN BINDING MOLECULES” (ALMAC DISCOVERY LIMITED, priority 2022, published 2026).

Columns and labels:
[1] = target: T1, ALPP expressed on the surface of CHO cells (CHO-ALPP) (Homo sapiens, UniProt P05187); experiment: Cell-surface binding by flow cytometry, CHO-ALPP; conditions: VHH proteins
T1 construct: expressed in transfected cells
Experimental: (§1) C-terminal His tagged VHH proteins were assessed for ALPP, ALPPL2, ALPI and ALPL cell-surface binding by flow cytometry. Binders encompassing different epitope bins were screened on CHO cells stably expressing ALPP, ALPPL2, ALPI or ALPL. High levels of cell-surface proteins expression were confirmed for each of the cell-lines by flow cytometry.
(§2) Cell surface binding of test agents to hALPP isoforms was characterized in four CHO-ALPP isoform stably transfected cell lines (CHO-ALPP, CHO-ALPPL2, CHO-ALPI and CHO-ALPL) and the resulting KDapp values determined. Adherent cells were detached from tissue culture flasks by incubating with 0.1% EDTA/PBS solution at 37° C. for ~10 minutes or until cells detached easily. […] Binding of VHH (His6 tagged) agents was determined by adding 100 μl of anti-x6His tag Ab (Abcam) per cell pellet sample as appropriate and incubating on ice for 30 mins. […]
(§3) VHH-hFc proteins were assessed for human ALPP, ALPPL2, ALPI and ALPL cell-surface binding by flow cytometry. […]
(§4) Cell surface binding of test agents to hALPP isoforms was characterized in four CHO-ALPP isoform transfectant cell lines (CHO-ALPP, CHO-ALPPL2, CHO-ALPI and CHO-ALPL) and the resulting KDapp values determined. […] Binding of VHH-hFc agents was determined by adding 100 μl of Fitc-anti-human Ab (ThermoFisher) and incubating for 30 mins on ice in the dark. […]

[2] = target: T2, ALPPL2 expressed on the surface of CHO cells (CHO-ALPPL2) (Homo sapiens, UniProt P10696); experiment: Cell-surface binding by flow cytometry, CHO-ALPPL2; conditions: VHH His proteins
T2 construct: expressed in transfected cells
Experimental: as §1, §2, §3, §4

T1 sequence (P05187 23-506 limits assumed): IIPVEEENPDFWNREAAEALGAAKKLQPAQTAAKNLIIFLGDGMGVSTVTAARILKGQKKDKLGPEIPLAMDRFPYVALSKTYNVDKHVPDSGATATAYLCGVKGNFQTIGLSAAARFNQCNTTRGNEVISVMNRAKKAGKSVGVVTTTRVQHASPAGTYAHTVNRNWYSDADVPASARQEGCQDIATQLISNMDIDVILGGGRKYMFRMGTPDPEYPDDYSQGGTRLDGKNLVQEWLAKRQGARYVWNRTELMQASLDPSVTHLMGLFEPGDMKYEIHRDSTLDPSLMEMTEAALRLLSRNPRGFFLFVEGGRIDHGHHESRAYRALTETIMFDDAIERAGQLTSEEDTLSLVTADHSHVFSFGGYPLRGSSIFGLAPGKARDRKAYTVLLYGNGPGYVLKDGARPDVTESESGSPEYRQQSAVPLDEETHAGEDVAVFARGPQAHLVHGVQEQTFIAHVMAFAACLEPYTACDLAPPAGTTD
T2 sequence (P10696 20-503 limits assumed): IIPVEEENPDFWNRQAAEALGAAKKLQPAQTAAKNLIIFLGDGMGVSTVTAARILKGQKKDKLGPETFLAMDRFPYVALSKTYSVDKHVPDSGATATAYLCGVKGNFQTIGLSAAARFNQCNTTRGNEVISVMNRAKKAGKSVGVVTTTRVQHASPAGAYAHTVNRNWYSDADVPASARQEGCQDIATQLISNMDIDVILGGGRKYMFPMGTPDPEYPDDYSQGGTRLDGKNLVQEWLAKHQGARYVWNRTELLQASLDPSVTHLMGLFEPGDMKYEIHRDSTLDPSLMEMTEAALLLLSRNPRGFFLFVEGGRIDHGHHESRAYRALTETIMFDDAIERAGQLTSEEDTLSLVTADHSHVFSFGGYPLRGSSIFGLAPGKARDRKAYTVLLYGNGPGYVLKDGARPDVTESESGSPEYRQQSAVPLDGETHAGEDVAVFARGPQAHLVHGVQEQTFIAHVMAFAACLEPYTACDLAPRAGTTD

B1: D10: ALPP targeting VHH domain, SEQ ID NO: 28 (protein)
VHH: QVQLVESGGGLVQPGGSLRLSCAASGSIFSVNTMGWYRQAPGKQRDLVAVATSGGTIHYADSVKGRFTISRDNAKNTVYLQMNSLKPEDTAVYYCNLVVPYGMIAGDHDYWGQGTKVTVSS
- binding preference ALPP versus ALPPL2 on CHO cells [1]: preferential binding to ALPP over ALPPL2
- KDapp CHO-ALPPL2 [2]: Binding
